Data taken from patent publication US20240398899A1 (priority 2021, published 2024).
Values joined by “and” are separate entries in the source; they are usually repeats but may differ in a detail not shown here. Identical values can stand only once.

Assays:
b-NGF = test: Alzheimer's biomarker multiplex analysis, scopolamine-damaged SH-SY5Y; format: cell-based, human; conditions: Scopolamine (4 mM)
Description: (§1) After overnight incubation as in the previous examples, cells were treated with recombinant lectin protein having SEQ ID NO: 1 at different concentrations ranging from 0.001 μg/ml-1 μg/ml for 24 h for Parkinson disease and 0.01 μg/ml-25 μg/ml for 24 h for Alzheimer's disease. • Parkinson Disease: After 24 h of pre-treatment with recombinant lectin protein having SEQ ID NO: 1, cells were exposed (MPP+) for another 24 h. Cells treated with MPP+Iodide were included as Control. […] The cells treated with Galantamine were included as positive Control.
(§2) The levels of markers were determined by multiplex analysis as: Cell culture supernatants were diluted (1:2) with Calibrator Diluent. 50 μl of standard or sample was added per well. 50 μl of the microparticle cocktail was added to each well of the microplate and covered with a foil plate sealer. The plate was incubated for 2 hours at room temperature on a horizontal orbital microplate shaker. The plate was washed using a magnetic device designed to accommodate a microplate. Washing was done by applying the magnet to the bottom of the microplate, allowing 1 minute before removing the liquid, filling each well with wash buffer (100 μl) and allowing 1 minute before removing the liquid again. 50 μl of diluted Biotin-Antibody Cocktail was added to each well. Covered the plate with a foil plate sealer and incubated for 1 hour at room temperature on the shaker. Repeated the wash step. 50 μl of diluted Streptavidin-PE was added to each well. The plate was securely covered with a foil plate sealer and incubated for 30 minutes at room temperature on the shaker. Repeated the wash step. The microparticles were resuspended by adding 100 μl of Wash Buffer to each well. The plate was incubated for 2 minutes on the shaker and read within 90 minutes using Magpix® multiplex machine. Levels of biomarkers for Parkinson's and Alzheimer's disease were estimated using Magpix® multiplex machine.
(§3) For Alzheimer's disease the percent modulation in each sample was determined as follows: […]

MPO = test: as above; format: cell-based, human; conditions: Scopolamine (4 mM)
Description: as §1, §2, §3

RAGE = test: as above; format: cell-based, human; conditions: Scopolamine (4 mM)
Description: as §1, §2, §3

SH-SY5Y neuronal cells = test: Mitochondrial membrane potential against MPP+ iodide damage, JC-1 assay; format: cell-based, human; conditions: MPP+ iodide 1 mM; for Mitochondrial membrane potential: red/green fluorescence ratio
Description: The plated cells were incubated overnight in 5% CO2 incubator at 37° C. After 24 h, cells were treated with concentrations of recombinant lectin protein having SEQ ID NO: 1 ranging from 1 μg/ml-50 μg/ml for 24 h. After 24 h of treatment, cells were exposed to damage (MPP+ iodide 1 mM) for 24 h. […] Untreated cells were included as control. Cells treated with Deprenyl served as positive control. After MPP+ iodide exposure, the protective effect of recombinant lectin protein having SEQ ID NO: 1 on mitochondrial membrane potential was assessed by JC-1 assay as follows; after incubation, the supernatants were discarded and 100 μl of JC1-dye solution (prepared by diluting 1 mM DMSO stock in to 10 μM in 1×PBS) was added to each well. The cells were then incubated with the dye in CO2 incubator at 37° C. for 15 min. After 15 min of incubation, the supernatant was removed, and the cells were washed twice with 1×PBS (phosphate buffer saline). 100 μl of 1×PBS was finally added to each well. Red fluorescence (excitation 550 nm, emission 600 nm) and green fluorescence (excitation 485 nm, emission 535 nm) were measured using Biotek Synergy HT plate reader. The mitochondrial membrane potential (Δψm) was calculated as the ratio of intensity of red fluorescence to intensity of green fluorescence described as follows: • Δψm=Intensity of red fluorescence/Intensity of green fluorescence • The percentage increase/restoration in Mitochondrial Membrane Potential against MPP+ iodide damage was calculated as:
[formula] • Where X=Δψm corresponding to SEQ ID NO: 1+ MPP+ iodide treated cells • R=Δψm corresponding to control cells (MPP+ iodide damage alone)

[1] = test system: Cerebral Cortex and Hippocampus; test: Brain histopathology (H&E), scopolamine induced dementia; format: in vivo, Mus musculus (Swiss Albino)
Description: Mouse brains were collected after humane sacrifice and fixed in 10% neutral buffered formalin. Then, the brain tissue was trimmed, processed and embedded in paraffin. 5 Micron sections were prepared in slide as a specimen for hematoxylin-eosin (H&E) staining. The hippocampal lesions were assessed microscopically at 100× magnification.
Detailed histological investigation was performed H&E stained brain tissues. Scoring was given according to the neuronal damage. […] The grading criteria for Histopathology score was: Normal or no injury—0; Rare neuronal injury (<5 clusters)—1; Occasional neuronal injury (5-15 clusters)—2; Frequent neuronal injury (>15 clusters)—3; Diffused neuronal injury-4.

TNF alpha = test: Brain biomarker ELISA, scopolamine induced dementia; format: in vivo, Mus musculus (Swiss Albino); conditions: scopolamine 2.5 mg/kg i.p., mice
Description: Healthy male Swiss albino mice (n=48) were selected and randomized based on body weight (n=8 per Group) into 6 groups as mentioned in table no-1. The control group G1 was treated intravenously with vehicle daily till the experiment completion. Group G2 was considered as negative control and treated with vehicle. […] Group G4, G5 &G6 animals were treated with the test item recombinant lectin protein having SEQ ID NO: 1 at the dose of 0.5 mg/kg, 0.25 mg/kg and 0.125 mg/kg, respectively. All the test items were given intravenously (i.v) daily at the dose volume of 5 ml/kg for 14 Days. The body weight was recorded daily throughout the experimental period. […] One hour after the last dose of test items (on Day 14) all the animals were injected with scopolamine hydrobromide at the dose of 2.5 mg/kg, i.p., except the normal control group G1. Passive avoidance test was conducted 30 min after scopolamine injection.
After passive avoidance test screening models of memory, the animals were sacrificed humanely. The whole brain was carefully removed from the skull and weighed. Brain was dissected into two portions
10% w/v brain homogenate (100 mg/mL) was prepared by homogenizing it in ice-chilled phosphate buffer. The homogenate was subsequently centrifuged using a refrigerated centrifuge at 3000 rpm for 10 min, and the supernatant was separated and used for the biochemical estimations.
Following biomarkers was estimated using ELISA kit as per manufacturer's instruction. • Brain NGF (Nerve Growth Factor), CUSABIO, Catalog No. CSB-E04684m • Acetylcholinesterase, CUSABIO, Catalog No. CSB-E17521m • TNF alpha, CUSABIO, Catalog No. CSB-E04741m

[2] = G4: 0.5 mg/kg i.v. qdx14, score 0 normal to 4 diffused neuronal injury
[3] = G5: 0.25 mg/kg i.v. qdx14, score 0 normal to 4 diffused neuronal injury
[4] = G6: 0.125 mg/kg i.v. qdx14, score 0 normal to 4 diffused neuronal injury

B1: SEQ ID NO: 1: variant of the S. rolfsii lectin amino acid sequence (reported as Rec-2 in WO2010/095143) (protein)
chain: TYKITVRVYQTNPDAFFHPVEKTVWKYANGGTWTITDDQHVLTMGGSGTSGTLRFHADNGESFTATFGVHNYKRWCDIVTNLAADETGMVINQQYYSQKNREEARERQLSNYQVKNAKGRNFQIVYTEAEGNDLHANLIIG
b-NGF; 0.01 μg/mL
  % Change of Biomarkers markers (wrt Control) b-NGF: 0%
b-NGF; 0.1 μg/mL
  % Change of Biomarkers markers (wrt Control) b-NGF: 0%
b-NGF; 1 μg/mL
  % Change of Biomarkers markers (wrt Control) b-NGF: −9%
b-NGF; 10 μg/mL
  % Change of Biomarkers markers (wrt Control) b-NGF: 41.1%
b-NGF; 25 μg/mL
  % Change of Biomarkers markers (wrt Control) b-NGF: 88.9%
MPO; 0.01 μg/mL
  % Change of Biomarkers markers (wrt Control) MPO: 1.7%
MPO; 0.1 μg/mL
  % Change of Biomarkers markers (wrt Control) MPO: −64%
MPO; 1 μg/mL
  % Change of Biomarkers markers (wrt Control) MPO: −45.9%
MPO; 10 μg/mL
  % Change of Biomarkers markers (wrt Control) MPO: 0%
MPO; 25 μg/mL
  % Change of Biomarkers markers (wrt Control) MPO: 0%
RAGE; 0.01 μg/mL
  % Change of Biomarkers markers (wrt Control) RAGE: −19.3%
RAGE; 0.1 μg/mL
  % Change of Biomarkers markers (wrt Control) RAGE: 0%
RAGE; 1 μg/mL
  % Change of Biomarkers markers (wrt Control) RAGE: −19.3%
RAGE; 10 μg/mL
  % Change of Biomarkers markers (wrt Control) RAGE: 16.3%
RAGE; 25 μg/mL
  % Change of Biomarkers markers (wrt Control) RAGE: −3%
SH-SY5Y neuronal cells; 1 μg/mL
  % Increase in Mitochondrial potential (w.r.t. control): 22.7%
  Mitochondrial membrane potential: 2.3
SH-SY5Y neuronal cells; 5 μg/mL
  % Increase in Mitochondrial potential (w.r.t. control): 86.6%
  Mitochondrial membrane potential: 3.4
SH-SY5Y neuronal cells; 10 μg/mL
  % Increase in Mitochondrial potential (w.r.t. control): 115.9%
  Mitochondrial membrane potential: 4
SH-SY5Y neuronal cells; 25 μg/mL
  % Increase in Mitochondrial potential (w.r.t. control): 84.7%
  Mitochondrial membrane potential: 3.4
SH-SY5Y neuronal cells; 50 μg/mL
  % Increase in Mitochondrial potential (w.r.t. control): 77.5%
  Mitochondrial membrane potential: 3.3
[1]; [2]
  Histopathology (Mean score) Cerebral Cortex Cortex: 0
  Histopathology (Mean score) Cerebral Cortex Meninges: 0
  Histopathology (Mean score) Hippocampus CA1: 0
  Histopathology (Mean score) Hippocampus CA3: 0.67
  Histopathology (Mean score) Hippocampus DG: 0
[1]; [3]
  Histopathology (Mean score) Cerebral Cortex Cortex: 0
  Histopathology (Mean score) Cerebral Cortex Meninges: 0
  Histopathology (Mean score) Hippocampus CA1: 0
  Histopathology (Mean score) Hippocampus CA3: 0.6
  Histopathology (Mean score) Hippocampus DG: 0
[1]; [4]
  Histopathology (Mean score) Cerebral Cortex Cortex: 0
  Histopathology (Mean score) Cerebral Cortex Meninges: 0
  Histopathology (Mean score) Hippocampus CA1: 0
  Histopathology (Mean score) Hippocampus CA3: 1
  Histopathology (Mean score) Hippocampus DG: 0
TNF alpha; G4: 0.5 mg/kg i.v. qdx14
  brain TNF-alpha Mean: 121.7 pg/mL and 121.73 pg/mL
TNF alpha; G5: 0.25 mg/kg i.v. qdx14
  brain TNF-alpha Mean: 67.65 pg/mL
TNF alpha; G6: 0.125 mg/kg i.v. qdx14
  brain TNF-alpha Mean: 79.53 pg/mL
